Measured values published in patent US20250388669A1 (published 2025).

T1: B7H3 (human, UniProt Q5ZPR3 29-466, limits assumed)
T1 construct: Tumor associated antigen; also called huB7H3
T1 sequence (looked up): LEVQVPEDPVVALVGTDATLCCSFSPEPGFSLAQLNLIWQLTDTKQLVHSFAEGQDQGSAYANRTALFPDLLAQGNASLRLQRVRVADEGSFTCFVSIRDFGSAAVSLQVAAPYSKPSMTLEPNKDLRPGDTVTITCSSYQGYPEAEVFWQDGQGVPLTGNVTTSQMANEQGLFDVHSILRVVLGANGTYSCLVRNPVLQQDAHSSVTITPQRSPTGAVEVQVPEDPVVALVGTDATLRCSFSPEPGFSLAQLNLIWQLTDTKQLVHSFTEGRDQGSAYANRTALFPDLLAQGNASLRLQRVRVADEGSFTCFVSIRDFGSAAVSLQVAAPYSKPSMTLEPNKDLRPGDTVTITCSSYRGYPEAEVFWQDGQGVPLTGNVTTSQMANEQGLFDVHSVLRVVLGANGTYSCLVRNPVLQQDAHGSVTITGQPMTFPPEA


Columns and labels:
B7H3 = biological target: T1, B7H3; test: FCM or ELISA
CD137 [1] = biological target: T2, CD137 (human, UniProt Q07011 24-186); test: CD137 binding by FCM or ELISA
T2 construct: Reporter assays used GS-H2-huCD137 cells expressing human CD137; also called 4-1BB/CD137; huCD137

CD137 [2] = biological target: T3, CD137 (human, UniProt Q07011 24-186); test: CD137 binding, FCM or ELISA
T3 construct: In the reporter assay it is whole, on GS-H2-huCD137 cells; also called 4-1BB; huCD137

CD3 = CD3 (human); test: CD3 binding, as described in Example 2 (ELISA or FCM)
CD3 (human), sequence (chain, as listed by the source): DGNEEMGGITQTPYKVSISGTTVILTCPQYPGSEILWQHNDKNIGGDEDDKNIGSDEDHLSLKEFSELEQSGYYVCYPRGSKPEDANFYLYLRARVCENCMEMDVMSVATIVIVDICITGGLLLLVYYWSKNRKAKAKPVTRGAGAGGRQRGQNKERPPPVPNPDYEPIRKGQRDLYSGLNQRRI

Row | Binder | binding result (B7H3) | binding result (CD137 [1]) | binding result (CD137 [2]) | EC50 (CD3)
1 | Ly1963 (other) chain 1: QVQLVQSGAEVKKPGASVKVSCKASGYTFTSYVMHWVRQKPGQGLEWIGYINPYNEGTESTDKFKGRATMTSDKSTSTVYMELSSLRSEDTAVYYCASIYYGYEGTYFGVWGQGTLVTVSSASTKGPSVFPLAPSSKSTSGGTAALGCLVKDYFPEPVTVSWNSGALTSGVHTFPAVLQSSGLYSLSSVVTVPSSSLGTQTYICNVNHKPSNTKVDKKVEPKSCGGGGSGGGGSGGGGSGGGGSEVQLVESGGGLVQPGGSLRLSCAASGFTFSTYAMNWVRQAPGKGLEWVGRIRSKYNNYATYYADSVKGRFTISRDDSKNSLYLQMNSLKTEDTAVYYCVRHGNFGNSYVSWFAYWGQGTLVTVSSGGGGSDKTHTCPPCPAPEAAGPSVFLFPPKPKDTLMISRTPEVTCVVVDVSHEDPEVKFNWYVDGVEVHNAKTKPREEQYNSTYRVVSVLTVLHQDWLNGKEYKCKVSNKALPAPIEKTISKAKGQPREPQVYTLPPSREEMTKNQVSLWCLVKGFYPSDIAVEWESNGQPENNYKTTPPVLDSDGSFFLYSKLTVDKSRWQQGNVFSCSVMHEALHNHYTQKSLSLSPGGGGGSGGGGSGGGGSGGGGSQVQLVQSGAEVKKPGASVKVSCKASGYTFAGFEMHWVRQAPGQGLEWMGAIDPKTGGTDYNQKFKDRVTMTRDTSISTAYMELSRLRSDDTAVYYCARDLGYFDVWGQGTLVTVSS chain 2: QVQLVQSGAEVKKPGASVKVSCKASGYTFTSYVMHWVRQKPGQGLEWIGYINPYNEGTESTDKFKGRATMTSDKSTSTVYMELSSLRSEDTAVYYCASIYYGYEGTYFGVWGQGTLVTVSSASTKGPSVFPLAPSSKSTSGGTAALGCLVKDYFPEPVTVSWNSGALTSGVHTFPAVLQSSGLYSLSSVVTVPSSSLGTQTYICNVNHKPSNTKVDKKVEPKSCGGGGSGGGGSGGGGSGGGGSQAVVTQEPSLTVSPGGTVTLTCRSSTGAVTTSNYANWVQQKPGQAPRGLIGGTNKRAPWTPARFSGSLLGGKAALTITGAQAEDEADYYCALWYSNLWVFGGGTKLTVLGGGGSDKTHTCPPCPAPEAAGPSVFLFPPKPKDTLMISRTPEVTCVVVDVSHEDPEVKFNWYVDGVEVHNAKTKPREEQYNSTYRVVSVLTVLHQDWLNGKEYKCKVSNKALPAPIEKTISKAKGQPREPQVYTLPPSREEMTKNQVSLSCAVKGFYPSDIAVEWESNGQPENNYKTTPPVLDSDGSFFLVSKLTVDKSRWQQGNVFSCSVMHEALHNHYTQKSLSLSPGGGGGSGGGGSGGGGSGGGGSDIQMTQSPSSLSASVGDRVTITCRASQDIRSNLNWYQQKPGGAVKLLIYYTSRLHSGVPSRFSGSGSGTDYTLTISSLQPEDFATYFCQQSEKLPRTFGGGTKVEIR light: EIVLTQSPATLSLSPGERATLSCRASSSVSYMHWYQQKPGQAPRPWIYATSNLASGIPARFSGSRSGTDYTLTISSLEPEDFAVYYCQQWSSNTLTFGGGTKVEIKRTVAAPSVFIFPPSDEQLKSGTASVVCLLNNFYPREAKVQWKVDNALQSGNSQESVTEQDSKDSTYSLSSTLTLSKADYEKHKVYACEVTHQGLSSPVTKSFNRGEC | binds | binds |  | 
2 | Ly2122 (bispecific antibody, human IgG1, kappa, B7H3/CD137: two B7H3 Fabs, terminal CD137 Fv) chain 1: QVQLVQSGAEVKKPGASVKVSCKASGYTFTSYVMHWVRQKPGQGLEWIGYINPYNEGTESTDKFKGRATMTSDKSTSTVYMELSSLRSEDTAVYYCASIYYGYEGTYFGVWGQGTLVTVSSASTKGPSVFPLAPSSKSTSGGTAALGCLVKDYFPEPVTVSWNSGALTSGVHTFPAVLQSSGLYSLSSVVTVPSSSLGTQTYICNVNHKPSNTKVDKKVEPKSCDKTHTCPPCPAPEAAGPSVFLFPPKPKDTLMISRTPEVTCVVVDVSHEDPEVKFNWYVDGVEVHNAKTKPREEQYNSTYRVVSVLTVLHQDWLNGKEYKCKVSNKALPAPIEKTISKAKGQPREPQVYTLPPSREEMTKNQVSLWCLVKGFYPSDIAVEWESNGQPENNYKTTPPVLDSDGSFFLYSKLTVDKSRWQQGNVFSCSVMHEALHNHYTQKSLSLSPGGGGGSGGGGSGGGGSGGGGSQVQLVQSGAEVKKPGASVKVSCKASGYTFAGFEMHWVRQAPGQGLEWMGAIDPKTGGTDYNQKFKDRVTMTRDTSISTAYMELSRLRSDDTAVYYCARDLGYFDVWGQGTLVTVSS chain 2: QVQLVQSGAEVKKPGASVKVSCKASGYTFTSYVMHWVRQKPGQGLEWIGYINPYNEGTESTDKFKGRATMTSDKSTSTVYMELSSLRSEDTAVYYCASIYYGYEGTYFGVWGQGTLVTVSSASTKGPSVFPLAPSSKSTSGGTAALGCLVKDYFPEPVTVSWNSGALTSGVHTFPAVLQSSGLYSLSSVVTVPSSSLGTQTYICNVNHKPSNTKVDKKVEPKSCDKTHTCPPCPAPEAAGPSVFLFPPKPKDTLMISRTPEVTCVVVDVSHEDPEVKFNWYVDGVEVHNAKTKPREEQYNSTYRVVSVLTVLHQDWLNGKEYKCKVSNKALPAPIEKTISKAKGQPREPQVYTLPPSREEMTKNQVSLSCAVKGFYPSDIAVEWESNGQPENNYKTTPPVLDSDGSFFLVSKLTVDKSRWQQGNVFSCSVMHEALHNRFTQKSLSLSPGGGGGSGGGGSGGGGSGGGGSDIQMTQSPSSLSASVGDRVTITCRASQDIRSNLNWYQQKPGGAVKLLIYYTSRLHSGVPSRFSGSGSGTDYTLTISSLQPEDFATYFCQQSEKLPRTFGGGTKVEIR light: EIVLTQSPATLSLSPGERATLSCRASSSVSYMHWYQQKPGQAPRPWIYATSNLASGIPARFSGSRSGTDYTLTISSLEPEDFAVYYCQQWSSNTLTFGGGTKVEIKRTVAAPSVFIFPPSDEQLKSGTASVVCLLNNFYPREAKVQWKVDNALQSGNSQESVTEQDSKDSTYSLSSTLTLSKADYEKHKVYACEVTHQGLSSPVTKSFNRGEC | binds | binds |  | 
3 | Ly2326 (bispecific antibody, human IgG1, kappa, CD19 Fabs, terminal CD137 Fv) chain 1: QVQLQQSGAELVRPGSSVKISCKASGYAFSSYWMNWVKQRPGQGLEWIGQIWPGDGDTNYNGKFKGKATLTADESSSTAYMQLSSLASEDSAVYFCARRETTTVGRYYYAMDYWGQGTTVTVSSASTKGPSVFPLAPSSKSTSGGTAALGCLVKDYFPEPVTVSWNSGALTSGVHTFPAVLQSSGLYSLSSVVTVPSSSLGTQTYICNVNHKPSNTKVDKKVEPKSCDKTHTCPPCPAPEAAGPSVFLFPPKPKDTLMISRTPEVTCVVVDVSHEDPEVKFNWYVDGVEVHNAKTKPREEQYNSTYRVVSVLTVLHQDWLNGKEYKCKVSNKALPAPIEKTISKAKGQPREPQVYTLPPSREEMTKNQVSLWCLVKGFYPSDIAVEWESNGQPENNYKTTPPVLDSDGSFFLYSKLTVDKSRWQQGNVFSCSVMHEALHNHYTQKSLSLSPGGGGGSGGGGSGGGGSGGGGSQVQLVQSGAEVKKPGASVKVSCKASGYTFAGFEMHWVRQAPGQGLEWMGAIDPKTGGTDYNQKFKDRVTMTRDTSISTAYMELSRLRSDDTAVYYCARDLGYFDVWGQGTLVTVSS chain 2: QVQLQQSGAELVRPGSSVKISCKASGYAFSSYWMNWVKQRPGQGLEWIGQIWPGDGDTNYNGKFKGKATLTADESSSTAYMQLSSLASEDSAVYFCARRETTTVGRYYYAMDYWGQGTTVTVSSASTKGPSVFPLAPSSKSTSGGTAALGCLVKDYFPEPVTVSWNSGALTSGVHTFPAVLQSSGLYSLSSVVTVPSSSLGTQTYICNVNHKPSNTKVDKKVEPKSCDKTHTCPPCPAPEAAGPSVFLFPPKPKDTLMISRTPEVTCVVVDVSHEDPEVKFNWYVDGVEVHNAKTKPREEQYNSTYRVVSVLTVLHQDWLNGKEYKCKVSNKALPAPIEKTISKAKGQPREPQVYTLPPSREEMTKNQVSLSCAVKGFYPSDIAVEWESNGQPENNYKTTPPVLDSDGSFFLVSKLTVDKSRWQQGNVFSCSVMHEALHNRFTQKSLSLSPGGGGGSGGGGSGGGGSGGGGSDIQMTQSPSSLSASVGDRVTITCRASQDIRSNLNWYQQKPGGAVKLLIYYTSRLHSGVPSRFSGSGSGTDYTLTISSLQPEDFATYFCQQSEKLPRTFGGGTKVEIR light: not shown |  |  | binds | 
4 | Ly1966 (other, Tri-specific antibody: CD19 Fabs, central CD3 Fv, terminal CD137 Fv) chain 1: QVQLQQSGAELVRPGSSVKISCKASGYAFSSYWMNWVKQRPGQGLEWIGQIWPGDGDTNYNGKFKGKATLTADESSSTAYMQLSSLASEDSAVYFCARRETTTVGRYYYAMDYWGQGTTVTVSSASTKGPSVFPLAPSSKSTSGGTAALGCLVKDYFPEPVTVSWNSGALTSGVHTFPAVLQSSGLYSLSSVVTVPSSSLGTQTYICNVNHKPSNTKVDKKVEPKSCGGGGSGGGGSGGGGSGGGGSEVQLVESGGGLVQPGGSLRLSCAASGFTFSTYAMNWVRQAPGKGLEWVGRIRSKYNNYATYYADSVKGRFTISRDDSKNSLYLQMNSLKTEDTAVYYCVRHGNFGNSYVSWFAYWGQGTLVTVSSGGGGSDKTHTCPPCPAPEAAGPSVFLFPPKPKDTLMISRTPEVTCVVVDVSHEDPEVKFNWYVDGVEVHNAKTKPREEQYNSTYRVVSVLTVLHQDWLNGKEYKCKVSNKALPAPIEKTISKAKGQPREPQVYTLPPSREEMTKNQVSLWCLVKGFYPSDIAVEWESNGQPENNYKTTPPVLDSDGSFFLYSKLTVDKSRWQQGNVFSCSVMHEALHNHYTQKSLSLSPGGGGGSGGGGSGGGGSGGGGSQVQLVQSGAEVKKPGASVKVSCKASGYTFAGFEMHWVRQAPGQGLEWMGAIDPKTGGTDYNQKFKDRVTMTRDTSISTAYMELSRLRSDDTAVYYCARDLGYFDVWGQGTLVTVSS chain 2: QVQLQQSGAELVRPGSSVKISCKASGYAFSSYWMNWVKQRPGQGLEWIGQIWPGDGDTNYNGKFKGKATLTADESSSTAYMQLSSLASEDSAVYFCARRETTTVGRYYYAMDYWGQGTTVTVSSASTKGPSVFPLAPSSKSTSGGTAALGCLVKDYFPEPVTVSWNSGALTSGVHTFPAVLQSSGLYSLSSVVTVPSSSLGTQTYICNVNHKPSNTKVDKKVEPKSCGGGGSGGGGSGGGGSGGGGSQAVVTQEPSLTVSPGGTVTLTCRSSTGAVTTSNYANWVQQKPGQAPRGLIGGTNKRAPWTPARFSGSLLGGKAALTITGAQAEDEADYYCALWYSNLWVFGGGTKLTVLGGGGSDKTHTCPPCPAPEAAGPSVFLFPPKPKDTLMISRTPEVTCVVVDVSHEDPEVKFNWYVDGVEVHNAKTKPREEQYNSTYRVVSVLTVLHQDWLNGKEYKCKVSNKALPAPIEKTISKAKGQPREPQVYTLPPSREEMTKNQVSLSCAVKGFYPSDIAVEWESNGQPENNYKTTPPVLDSDGSFFLVSKLTVDKSRWQQGNVFSCSVMHEALHNRFTQKSLSLSPGGGGGSGGGGSGGGGSGGGGSDIQMTQSPSSLSASVGDRVTITCRASQDIRSNLNWYQQKPGGAVKLLIYYTSRLHSGVPSRFSGSGSGTDYTLTISSLQPEDFATYFCQQSEKLPRTFGGGTKVEIR light: not shown |  |  | binds | 0.348 µg/mL
